# Data taken from article PMC3924328, “Structure of the S100A4/myosin-IIA complex” (BMC Structural Biology, 2013).
# The star is where a group is joined. FITC = O=C1OC2(c3ccc(O)cc3Oc3cc(O)ccc32)c2ccc(NC(=S)*)cc21; Ahx = NCCCCCC(=O)O
# B1: S100A4 (wild-type, full-length, human) (natural protein)
# chain: not shown
# notes: Dimer; also called wild-type S100A4; Ca^2+-S100A4; source: E. coli BL21(DE3)*, purified (ammonium sulfate, Phenyl-Sepharose, Q XL anion exchange); 15N-labelled from M9 medium for NMR
# Key:
# [1] = biological target: B1; experiment: fluorescence polarisation; competition anisotropy; 50 nM FITC-MIIA^1904-1927, 0.3 μM S100A4 dimer, 0-10 μM MIIA^1851-1960 dimer; 22°C; 20 mM Tris pH 7.5, 150 mM KCl, 1 mM DTT, 0.5 mM CaCl2, 0.5 mg/ml BSA; details: both partners purified
# [2] = biological target: B1; experiment: AUC; sedimentation equilibrium, 22°C, interference optics; 20 mM Tris pH 7.5, 150 mM KCl, 0.5 mM CaCl2, 1 mM TCEP; MIIA^1851-1960 alone and mixed with S100A4 at 0.5:1 and 1:1 (dimer:dimer); 12,000, 20,000 and 28,000 rpm; details: both partners purified
# [3] = biological target: the molecule itself; experiment: as above
# [4] = biological target: B1; experiment: AUC; sedimentation velocity, 22°C, 53,000 rpm; 20 mM Tris pH 7.5, 150 mM KCl, 0.5 mM CaCl2, 1 mM TCEP; each protein alone and MIIA^1851-1960 dimer:S100A4 dimer at 0.5:1, 1:1, 1.5:1; details: both partners purified
# [5] = biological target: T1, S100A4Δ8C (S100A4 with the C-terminal eight amino acids deleted) (human, UniProt P26447 1-93); experiment: fluorescence polarisation; direct anisotropy titration; 50 nM FITC-MIIA^1904-1927, 0-30 μM S100A4Δ8C dimer; 22°C; 20 mM Tris pH 7.5, 150 mM KCl, 1 mM DTT, 0.5 mM CaCl2, 0.5 mg/ml BSA; single site saturation fit; details: both partners purified
# T1 construct: S100A4, human, codon-optimized, untagged, in pET11b; deletion of the C-terminal eight amino acids (residues 94-101 absent); Dimer; also called Ca^2+-S100A4Δ8C; apo-S100A4Δ8C; source: E. coli BL21(DE3)*, purified (ammonium sulfate, Phenyl-Sepharose, Q XL anion exchange; Superdex 75 for crystallization)
# T1 sequence (P26447 1-93, stated change not applied): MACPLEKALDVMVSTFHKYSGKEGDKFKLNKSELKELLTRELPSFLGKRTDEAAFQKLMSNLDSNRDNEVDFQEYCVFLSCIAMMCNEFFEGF
binder,measurement,setting,value
"MIIA^1851-1960 (C-terminal fragment of the human myosin-IIA heavy chain) (domain or fragment, UniProt P35579 1851-1960, looked up, about 75 residues of the coiled-coil and the entire C-terminal tailpiece; A dimer when alone (sedimentation equilibrium); Printed monomer mass 12,397.5 Da; source: E. coli BL21(DE3)*, purified (High Q Sepharose, hydroxyapatite, Sephacryl S200)) VDDERRNAEQYKDQADKASTRLKQLKRQLEEAEEEAQRANASRRKLQRELEDATETADAMNREVSSLKNKLRRGDLPFVVPRRMARKGAGDGSDEEVDGKADGAEAKPAE",IC50,[1],21.2 nM
same,stoichiometry N,[2],1 MIIA^1851-1960 polypeptide chain per S100A4 dimer
same,stoichiometry N,[3],2
same,stoichiometry N,[4],1 MIIA^1851-1960 polypeptide per S100A4 dimer
"{FITC-Ahx}-TETADAMNREVSSLKNKLRRGDLP-NH2 (SMILES CSCC[C@H](NC(=O)[C@H](C)NC(=O)[C@H](CC(=O)O)NC(=O)[C@H](C)NC(=O)[C@@H](NC(=O)[C@H](CCC(=O)O)NC(=O)[C@@H](NC(=O)CCCCCNC(=S)Nc1ccc2c(c1)C(=O)OC21c2ccc(O)cc2Oc2cc(O)ccc21)[C@@H](C)O)[C@@H](C)O)C(=O)N[C@@H](CC(N)=O)C(=O)N[C@@H](CCCNC(=N)N)C(=O)N[C@@H](CCC(=O)O)C(=O)N[C@H](C(=O)N[C@@H](CO)C(=O)N[C@@H](CO)C(=O)N[C@@H](CC(C)C)C(=O)N[C@@H](CCCCN)C(=O)N[C@@H](CC(N)=O)C(=O)N[C@@H](CCCCN)C(=O)N[C@@H](CC(C)C)C(=O)N[C@@H](CCCNC(=N)N)C(=O)N[C@@H](CCCNC(=N)N)C(=O)NCC(=O)N[C@@H](CC(=O)O)C(=O)N[C@@H](CC(C)C)C(=O)N1CCC[C@H]1C(N)=O)C(C)C, source: synthetic peptide (Bio-Synthesis Inc.)) [FITC-MIIA^1904-1927 peptide]",Kd,[5],510 ± 50 nM
B1,binding result,[3],binds
